Source: US20210087250A1, “PHARMACEUTICAL COMPOSITIONS FOR THE TRANSMUCOSAL DELIVERY OF THERAPEUTIC PEPTIDES AND PROTEINS” (CYPRUMED GMBH, priority 2018, published 2021)
Like-named read-outs stand apart in the source and are kept apart here. Values belong to the compound of their own block, whether it stands above or below them.

Experiments:
[1] = test system: human nasal cell line RPMI 2650; assay: Permeation of semaglutide through human nasal cells; assay type: in vitro ADME; settings: 0.5 mg/ml semaglutide in KRB with 5% arginine HCl versus KRB only
Protocol: All permeation studies were performed with RPMI 2650 models after 3 weeks of cultivation. Furthermore, the whole equipment was pre-warmed to 37° C. All steps were performed at 37° C. Prior to permeation, TEER values were measured using EVOM® combined with Endohm® Chamber from World Precision Instruments (WPI, Sarasota, Fla., US).
RPMI models were incubated for 60 min in KRB. Meanwhile sample solution containing excipients and active pharmaceutical ingredients were prepared. Subsequent to the incubation period, TEER values were determined again.
Before permeation, the KRB was removed from both sides of the RPMI models and 1200 μL KRB as acceptor volume were added. Then, 200 μL of the formulations (containing 0.5 mg/ml of Semaglutide each; reference formulation in KRB only, sample formulation in KRB containing 5% of arginine HCl) were applied to the apical surface of each RPMI model. With this step the permeation time was started. After two hours of exposition the acceptor was entirely removed, transferred to Eppendorf tubes and replaced by 1200 μL pre-warmed KRB. Four hours after starting the experiment the total amount of the acceptor was withdrawn again. During permeation the cell culture plates were shaken horizontally with 200 U/min at 37° C.

RPMI 2650 cells = assay: CellTiter 96 AQueous One Solution cell proliferation cytotoxicity assay (MTS); assay type: cell-based, human; settings: 2.5% and 5.0% (m/V) in KRB, up to 120 min
Protocol: CellTiter 96® AQueous One Solution Cell proliferation Assay from Promega (Mannheim, Germany) is a colorimetric method for determining the number of viable cells in a cytotoxicity assay. The MTS tetrazolium compound is bioreduced by viable cells in a colored formazan product. The quantity of formazan is directly proportional to the number of living cells and can be measured by absorbance at 490 nm. This assay was performed to determinate cytotoxic effects of Arginine HCl in the concentrations of 2.5% and 5.0% (m/V) on RPMI 2650 cells.
RPMI 2650 cells were seeded onto a 96-well tissue culture test plate at a density of 60,000 cells per well for 24 h. Arginine HCl was dissolved in KRB. Medium was removed from the cells and replaced by 100 μL excipient solutions per well. Cells were incubated with excipient solutions for 0 min, 15 min, 30 min, 60 min and 120 min. Furthermore, cells were incubated with KRB, 1.0% Triton-X solution (V/V) for the same incubation periods as negative and positive controls, respectively. Bacitracin (BAC) served as reference.
The CellTiter 96® AQueous One Solution Cell proliferation Assay was carried out following the manufacturer's protocol. […]
After the incubation period the samples were analyzed immediately. Absorbance was recorded at 490 nm and measured by using a microplate reader Infinite® M Plex (Tecan, Switzerland).

MDCK cells = assay: Transepithelial electrical resistance (TEER) measurement; assay type: cell-based; settings: 2.5% and 5%
Protocol: The cellZscope from nanoAnalytics (Munster, Germany) was used for continuous evaluation of TEER as a surrogate parameter of tight junction functionality. MDCK cells were grown on 1.12 cm^2, 1.0 μm transparent filter inserts (ThinCerts™, Greiner Bio-One, Frickenhausen, Germany) with a seeding density of 100,000 cells per well. The medium was changed at cultivation days 3, 4 and 5. TEER measurements were performed on day 5 when cells reached a resistance of approximately 3,500 Ω·cm^2 starting with the replacement of the growth medium by an equivalent volume of KRB, pH 7.4 (500 μL apical, 1,500 μL basolateral) and cell incubation for 60 min. After this preincubation, 250 μL of KRB was removed from the insert, and the same volume of double-concentrated sample solution (Arginine HCl in KRB) was added to the 250 μL KRB inside the insert to reach the desired concentration. Afterwards, impedance measurements were performed for 180 min with a frequency range of 1 Hz to 100 kHz at 37° C. and 5% CO2 inside the incubator.
Subsequently, the cells were carefully washed with fresh KRB and incubated in medium, and TEER was monitored up to 24 h in 30 min time intervals after the start of the experiment to evaluate TEER recovery. The results (shown in FIG. 7) are given as the relative TEER reduction, defined as the percentage change of the starting value corrected by the baseline value.

[2] = target: T1, PTH(1-34) (Homo sapiens (Human)) (UniProt P01270)
T1 sequence (peptide): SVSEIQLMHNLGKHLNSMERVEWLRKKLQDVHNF

desmopressin [3] = target: desmopressin
[4] = target: T1, PTH(1-34) (Homo sapiens (Human)); remark: listed apart in the source
desmopressin [5] = target: desmopressin; remark: listed apart in the source
[6] = target: T1, PTH(1-34) (Homo sapiens (Human)); remark: listed apart in the source

Compound: Cl.N=C(N)NCCC[C@H](N)C(=O)O [arginine HCl, arginine hydrochloride]
permeation of semaglutide across human nasal cells [1]: improves the permeation of semaglutide
cell viability (RPMI 2650 cells): Only a minor decrease in cell viability
TEER (MDCK cells; 180 min): strong decrease in TEER
reversibility of tight junction opening (TEER recovery) (MDCK cells; up to 24 h): fully reversible

Compound: trypsin (enzyme)
Intact PTH(1-34) [2]: 0%
% intact Adalimumab (adalimumab): 82%

Compound: pancreatin (pool or library)
% intact PTH(1-34) [4]: 0%
Peptide recovery (desmopressin [5]): 20%

Next, values leading:

Intact desmopressin after 5 hours incubation (%) (desmopressin [3]): 7%
Compound: chymotrypsin (enzyme)

Intact PTH(1-34) [6]: 0%
Compound: pepsin (enzyme)
